Experimental findings from EP2830663B1 (Sorrento Therapeutics, Inc., dated 2019) are described below.

For this assay, the target named is VEGFR2 on HUVECs (UniProt P35968 20-1356, limits assumed). Description: cell-based or functional assay.
VEGFR2 on HUVECs, sequence (P35968 20-1356 limits assumed): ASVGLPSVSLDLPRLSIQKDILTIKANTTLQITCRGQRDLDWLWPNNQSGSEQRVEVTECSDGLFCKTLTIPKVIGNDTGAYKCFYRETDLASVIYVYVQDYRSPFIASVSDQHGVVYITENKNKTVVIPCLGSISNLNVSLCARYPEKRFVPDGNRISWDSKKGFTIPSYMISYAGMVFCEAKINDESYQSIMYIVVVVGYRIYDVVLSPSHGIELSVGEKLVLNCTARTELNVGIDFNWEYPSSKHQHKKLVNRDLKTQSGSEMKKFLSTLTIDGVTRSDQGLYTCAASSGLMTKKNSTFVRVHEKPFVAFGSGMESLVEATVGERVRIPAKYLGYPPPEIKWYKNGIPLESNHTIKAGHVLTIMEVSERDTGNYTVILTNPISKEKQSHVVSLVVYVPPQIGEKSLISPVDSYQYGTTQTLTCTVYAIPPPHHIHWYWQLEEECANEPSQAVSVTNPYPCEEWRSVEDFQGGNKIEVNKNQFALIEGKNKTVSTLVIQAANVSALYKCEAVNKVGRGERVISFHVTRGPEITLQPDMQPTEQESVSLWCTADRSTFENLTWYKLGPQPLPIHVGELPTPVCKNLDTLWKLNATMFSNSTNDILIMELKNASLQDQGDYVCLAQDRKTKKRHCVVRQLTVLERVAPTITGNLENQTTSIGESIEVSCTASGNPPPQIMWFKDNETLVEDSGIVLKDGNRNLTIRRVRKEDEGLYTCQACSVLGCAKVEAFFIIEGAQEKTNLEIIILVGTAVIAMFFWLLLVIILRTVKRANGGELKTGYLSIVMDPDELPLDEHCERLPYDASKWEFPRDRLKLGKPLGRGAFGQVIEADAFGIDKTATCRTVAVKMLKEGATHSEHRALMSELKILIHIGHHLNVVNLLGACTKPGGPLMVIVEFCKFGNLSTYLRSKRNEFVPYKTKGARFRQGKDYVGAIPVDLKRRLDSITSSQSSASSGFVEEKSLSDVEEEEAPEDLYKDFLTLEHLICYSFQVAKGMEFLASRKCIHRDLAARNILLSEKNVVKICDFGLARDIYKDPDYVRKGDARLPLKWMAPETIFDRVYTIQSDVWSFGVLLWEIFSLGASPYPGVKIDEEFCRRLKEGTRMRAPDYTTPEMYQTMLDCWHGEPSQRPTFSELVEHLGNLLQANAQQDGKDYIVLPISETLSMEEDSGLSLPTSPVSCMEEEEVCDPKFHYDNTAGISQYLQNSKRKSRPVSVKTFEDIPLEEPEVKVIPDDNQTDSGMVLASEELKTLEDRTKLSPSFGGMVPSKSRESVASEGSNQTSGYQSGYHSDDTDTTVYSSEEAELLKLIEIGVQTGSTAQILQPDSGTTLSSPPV

B1: VK-B8 (antibody, V domains shown)
VH: QVQLVQSGAEVKKPGSSVKVSCKAYGGTFGSYGVSWVRRAPGQGLEWMGRLIPIFGTRDYAQKFQGRVTLTADESTNTAYMELSSLRSEDTAVYYCARDGDYYGSGSYYGMDVWGQGTLVTVSS
VL: ETTLTQSPATLSVSPGERATVSCRASQSLGSNLGWFQQKPGQAPRLLIYGASTRATGIPARFSGSGSGTEFTLTISSLQSEDFAVYFCQQYNDWPITFGQGTRLEIK
As for B1, the “IC50, inhibition of VEGF-induced HUVEC cell migration (Figure 14)” value is 530 pM; the “IC50, inhibition of VEGF-induced HUVEC cell proliferation (Figure 13)” value came out at 14900 pM; the “IC50, inhibition of VEGF-induced HUVEC migration (modified Boyden chamber)” value is 500 pM; the “IC50, inhibition of VEGF-induced HUVEC proliferation” value was found to be 14000 pM. Further, the “IC50, inhibition of VEGF-induced p44/p42 MAPK (Erk1/2) phosphorylation in HUVECs (ELISA)” value was 80 pM.
